Assay results as given in patent US20110034670A1.
Each block holds one substance with its values, some of them ahead of it.

Legend:
[1] = target: Lck; experiment: steady-state kinetics, ATP-binding site, after UV exposure
[2] = target: Lck; experiment: steady-state kinetics, radioactive kinase assay; ATP-binding site
[3] = target: Src tyrosine kinase; experiment: as above
[4] = target: Src tyrosine kinase; experiment: steady-state kinetics, radioactive kinase assay; ATP-binding site of Src
[5] = target: Src tyrosine kinase; experiment: steady-state kinetics, Ki against Km of ATP
[6] = target: Lck; experiment: steady-state kinetics, radioactive kinase assay
[7] = target: Lck; experiment: steady-state kinetics, radioactive kinase assay; ATP-binding site of Lck
[8] = target: Src tyrosine kinase; experiment: radioactive Src kinase assay, catalytic activity inhibition

Lck, sequence (D3DPP8 whole entry): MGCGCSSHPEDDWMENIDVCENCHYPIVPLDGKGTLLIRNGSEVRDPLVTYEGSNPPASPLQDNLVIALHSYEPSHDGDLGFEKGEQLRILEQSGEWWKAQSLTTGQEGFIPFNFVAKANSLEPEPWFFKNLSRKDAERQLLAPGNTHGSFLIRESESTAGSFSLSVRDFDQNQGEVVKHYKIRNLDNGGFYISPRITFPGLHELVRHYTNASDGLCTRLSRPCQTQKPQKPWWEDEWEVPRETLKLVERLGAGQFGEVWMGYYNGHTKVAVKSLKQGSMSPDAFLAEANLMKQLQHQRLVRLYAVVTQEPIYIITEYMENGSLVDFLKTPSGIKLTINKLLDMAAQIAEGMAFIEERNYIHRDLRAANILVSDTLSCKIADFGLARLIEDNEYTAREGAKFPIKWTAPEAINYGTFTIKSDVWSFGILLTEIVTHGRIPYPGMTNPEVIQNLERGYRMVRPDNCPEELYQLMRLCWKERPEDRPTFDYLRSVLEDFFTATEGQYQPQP

Ki [1]: 29.8 µM | Ki [2]: 30 µM | Ki [3]: 2.7 µM | Ki [4]: 1.7 to 2.6 µM
Substance: ATP-1,13-Trioxa-SA-pTyr-γ-p-azidoGlu-Glu-Ile-OH (7) (peptide)

fold more potent than ATP alone [5]: 44 fold | fold better binding affinity than ATP [6]: 3.9 fold | Ki [7]: 25.3 µM
Substance: ATP-1,13-Trioxa-Suc-pTyr-Glu-Glu-Ile-OH (5) (peptide)

Ki [8]: 608 µM
Substance: H2N-1,13-Trioxa-Suc-pTyr-Glu-Glu-Ile-OH (16) (peptide)
